Assay [1] concerns the target T1, Orai1 (Homo sapiens, UniProt Q96D31). As to the kind of experiment: Yeast split ubiquitin interaction assay, CAD with Orai1. Type of assay: binding. As to conditions: NubG-Orai1 and CAD-Cub-LV in yeast. As for the experimental part:
Split-Ubiquitin Yeast Two Hybrid Assay. Screening was performed according to the manufacturer's instructions (Dualsystems Biotech). Transformed yeast were selected on media lacking Trp and Leu (-TL). Interaction was observed by cell growth on plates lacking Trp, Leu, and His (TLH) in the presence of 3-aminotriazole (3-AT). Protein interactions were also assessed by measuring lacZ activity using the chromogenic substrate X-gal (5-bromo-4-chloro-3-indolyl-β-galactopyranoside).
Split-Ubiquitin Yeast Two Hybrid Assay. To generate fusion proteins with the N-terminal half of ubiquitin (Nub), full-length or fragments of Orai1 were amplified by PCR and cloned into the pDL2-Nubx vector (Dualsystems Biotech). The Nub sequence in the pDL2-Nubx plasmid contains a point mutation (NubG) that abolishes the spontaneous association of Nub to the C-terminal half of ubiquitin (Cub). The CAD was subcloned into the pAMBV4 vector, which contains Cub fused to a chimeric transcription factor consisting of the DNA binding domain from LexA and the VP16 transactivation domain.
As a third test for association of CAD and Orai1 in vivo, and to map the interaction domains of Orai1 we introduced both proteins into a yeast split ubiquitin interaction system. […]

Assay [2] has as its target T1, Orai1. Briefly: Whole-cell patch clamp recording of ICRAC in transfected HEK 293 cells. In kind it is cell-based. The arrangement: expressed in transfected cells; host or cells: HEK 293. As to conditions: compared with native ICRAC. The procedure:
Electrophysiology. HEK 293 cells were transfected 8-24 h prior to electrophysiology experiments with STIM1- and Orai1-derived constructs in a 1:1 mass ratio using Lipofectamine 2000. […] ICRAC in cells cultured without LaCl3 was similar to that in cells cultured with LaCl3, but most cells without LaCl3 died soon after break-in.
Currents were recorded using standard whole-cell patch clamp techniques (Prakriya and Lewis, 2001). Pipettes of resistance 2-5 MΩ were filled with an internal solution containing (in mM) 150 Cs aspartate, 8 MgCl2, 10 EGTA, and 10 HEPES (pH 7.2 with CsOH). Currents were sampled at 5 kHz and filtered at 2 kHz, and all voltages were corrected for the junction potential of the pipette solution relative to Ringer's in the bath (−13 mV).
Patch-clamp Experiments. Pipette-membrane seals were formed in 2 mM Ca^2+ Ringer's solution. After break-in to the whole-cell configuration, voltage stimuli consisting of a 100-ms step to −100 mV followed by a 100-ms ramp from −100 to +100 mV were delivered every 5 s from the holding potential of +30 mV. After the currents reached a steady level (˜300 s for wild-type STIM1), the external solution was changed via a multibarrel local perfusion pipette to a high-Ca^2+ Ringer's containing (in mM) 130 NaCl, 4.5 KCl, 20 CaCl2, 1 MgCl2, 10 D-glucose, and 5 HEPES (pH 7.4 with NaOH). All data were leak-corrected using the current elicited in 20 mM Ca^2+ Ringer's+10 μM LaCl3 at the end of the each experiment. LaCl3 and 2-APB were added directly to parent solutions on the day of the experiment from 10 mM and 100 mM stocks in H2O and DMSO, respectively.
As a definitive test for CRAC channel activation, we conducted whole-cell patch clamp recordings from HEK 293 cells transiently transfected with myc-Orai1 and either YFP-STIM1 or YFP-CAD. In cells expressing full length YFP-STIM1, ICRAC appeared over several minutes following break-in, consistent with the typical slow activation seen in response to passive store depletion (FIG. 2D). […] In contrast, inward current was present from the moment of break-in in cells expressing YFP-CAD (FIG. 2E). This current was identified as ICRAC based on its dependence on extracellular Ca^2+, inward rectification, sequential enhancement and inhibition by 2-APB, and inhibition by La^3+ (FIG. 2E and FIG. 10 C, D). ICRAC was not observed at break-in in HEK 293 cells transfected with YFP or YFP-CAD in the absence of Orai1 (FIG. 2F), consistent with the low level of endogenous STIM1 and Orai1 in these cells. […] Inactivation was restored by addition of STIM1 residues carboxy-terminal to CAD.
A general note: In patch-clamp work, channel activity is measured electrically.

For assay [3], the target named is T1, Orai1. As to the kind of experiment: Co-immunoprecipitation with Orai1 in HEK 293T cells. Type of assay: binding. The arrangement: expressed in transfected cells; host or cells: HEK 293. The note with it: 150 mM salt, 1% Triton X-100. The procedure: Immunoprecipitation and Immunoblot Analysis. Transfected HEK 293T cells (12-24 h) were washed with PBS and lysed in 50 mM Tris-HCl pH 7.5, 150 mM NaCl, 1% Triton X-100, and protease inhibitors. Lysates were spun at 12,000 rpm for 10 min, and the supernatant was incubated with anti-Flag M2 agarose beads (Sigma), or anti-myc or -HA antibody followed by IgG agarose beads (Pierce). Lysates and immunoprecipitates were subjected to SDS-PAGE, probed with HRP-conjugated secondary antibody and detected by enhanced chemiluminescence (Pierce).
CAD Associates with Orai1 in vivo and in vitro. Because cytosolic CAD is a potent activator of Orai1 channels and is not associated with the ER, we hypothesized that CAD binds to Orai1. To test this idea, we first expressed YFP-CAD with or without myc-Orai1 in HEK 293 cells and examined its intracellular localization. […] To provide additional evidence that CAD and Orai1 are part of the same protein complex we expressed Flag-tagged CAD and GFP-tagged Orai1 in HEK 293T cells and immunoprecipitated CAD with anti-Flag antibodies. GFP-myc-Orai1 was detected in the immunoprecipitates from cells co-expressing CAD and Orai1 but not from cells expressing CAD or Orai1 alone (FIG. 3B).
Thus, CAD and Orai1 form a protein complex in mammalian cells.

T1 sequence (Q96D31 whole entry): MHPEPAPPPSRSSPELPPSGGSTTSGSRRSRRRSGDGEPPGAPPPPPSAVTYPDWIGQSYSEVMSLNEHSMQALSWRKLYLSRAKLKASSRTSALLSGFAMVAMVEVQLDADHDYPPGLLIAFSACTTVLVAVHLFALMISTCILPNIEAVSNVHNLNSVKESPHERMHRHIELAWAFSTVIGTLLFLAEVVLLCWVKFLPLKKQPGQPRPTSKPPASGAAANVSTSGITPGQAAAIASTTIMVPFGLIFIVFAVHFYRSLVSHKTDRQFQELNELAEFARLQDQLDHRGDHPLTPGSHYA

For “CAD: 107-residue CRAC activation domain within the C-terminus of STIM1 (aa 342-448), SEQ ID NO:1”, the “interaction with Orai1 (growth on His selection, b-gal)” value in assay [1] is reported as “interact with each other”. The “fast Ca2+-dependent inactivation of activated current” value in assay [2] is given as “lacked fast Ca^2+-dependent inactivation”. Besides, in assay [3], the “co-immunoprecipitation with Orai1” value was “co-immunoprecipitates with Orai1”.

The record behind these values is patent US20120165265A1, “Calcium Signaling Modulators Involving STIM and ORAI Proteins” (priority 2009, published 2012).
